From article PMC12510224

Biological target: MDM2(S395D) S395D (UniProt Q00987)
Experiment: RNA co-IP (anti-MDM2 4B2) with RT-qPCR
Conditions: RNA co-IP: 50 mM Tris pH 7.5, 150 mM NaCl, 0.01 mM ZnSO4, 2 mM MgCl2, 0.02 mg/mL yeast tRNA, 0.2 mg/mL BSA, room temperature, pull-down overnight at 4 C

MDM2(S395D) S395D, sequence (Q00987 whole entry S395D): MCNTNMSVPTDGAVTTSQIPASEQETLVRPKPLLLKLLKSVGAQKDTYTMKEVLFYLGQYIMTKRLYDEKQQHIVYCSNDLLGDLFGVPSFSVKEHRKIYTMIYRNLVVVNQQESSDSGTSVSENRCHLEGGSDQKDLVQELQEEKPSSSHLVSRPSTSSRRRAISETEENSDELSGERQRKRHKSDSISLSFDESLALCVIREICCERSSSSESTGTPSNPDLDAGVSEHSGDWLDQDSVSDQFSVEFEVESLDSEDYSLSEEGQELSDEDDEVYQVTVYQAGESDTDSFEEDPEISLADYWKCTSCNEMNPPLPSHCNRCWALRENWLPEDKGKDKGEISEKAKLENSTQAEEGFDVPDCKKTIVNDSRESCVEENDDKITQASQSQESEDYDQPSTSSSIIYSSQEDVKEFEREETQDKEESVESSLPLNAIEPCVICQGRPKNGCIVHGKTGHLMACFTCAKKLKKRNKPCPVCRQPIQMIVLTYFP

AUGGAGGAGCCGCAGUCAGAUCCUAGCGUCGAGCCCCCUCUGAGUCAGGAAACAUUUUCAGACCUAUGGAAACUACUUCCUGAAAACAACGUUCUGUCCCCCUUGCCGUCCCAAGCAAUGGAUGAUUUGAUGCUGUCCCCGGACGAUAUUGAACAAUGGUUCACUGAAGACCCAGGUCCAGAUGAAGCUCCCAGAAUGCCAGAGGCUGCUCCCCCCGUGGCCCCUGCACCAGCAGCUCCU [p53 mRNA +1 to +240 WT]
binding signal (fold increase over no BOX-I oligo): 60
